These results are taken from patent US20180094060A1 (PIERRE FABRE MEDICAMENT, published 2018).

This assay addresses T1, recombinant human insulin receptor (human, UniProt P06213-2 28-944, limits assumed).
T1 construct: ELISA coating protein; also called rhIR; human IR
The experiment in a line: direct ELISA, coated protein 1 µg/ml, hybridoma supernatant. On the procedure:
Further characterizations of 810D12 antibody were then performed using hybridoma supernatants such as rhIGF-1R or rmIGF-1R or rhIR ELISA. In all direct ELISAs, proteins of interest were immobilized (1 μg/ml) to the bottom of each well. After saturation, hybridoma supernatants were added to the wells. After a 1-hour incubation period and a washing step, a solution of goat anti-mouse IgG-HRP labelled polyclonal antibody was used for detection, prior to the addition of the TMB substrate. The reaction was stopped with a 1M H₂SO₄ solution before reading the OD with a spectrophotometer at a 450 nm wavelength.
For orientation: ELISA stands for enzyme-linked immunosorbent assay.

T1 sequence (P06213 other isoform, or with tags, fused parts or gaps limits assumed): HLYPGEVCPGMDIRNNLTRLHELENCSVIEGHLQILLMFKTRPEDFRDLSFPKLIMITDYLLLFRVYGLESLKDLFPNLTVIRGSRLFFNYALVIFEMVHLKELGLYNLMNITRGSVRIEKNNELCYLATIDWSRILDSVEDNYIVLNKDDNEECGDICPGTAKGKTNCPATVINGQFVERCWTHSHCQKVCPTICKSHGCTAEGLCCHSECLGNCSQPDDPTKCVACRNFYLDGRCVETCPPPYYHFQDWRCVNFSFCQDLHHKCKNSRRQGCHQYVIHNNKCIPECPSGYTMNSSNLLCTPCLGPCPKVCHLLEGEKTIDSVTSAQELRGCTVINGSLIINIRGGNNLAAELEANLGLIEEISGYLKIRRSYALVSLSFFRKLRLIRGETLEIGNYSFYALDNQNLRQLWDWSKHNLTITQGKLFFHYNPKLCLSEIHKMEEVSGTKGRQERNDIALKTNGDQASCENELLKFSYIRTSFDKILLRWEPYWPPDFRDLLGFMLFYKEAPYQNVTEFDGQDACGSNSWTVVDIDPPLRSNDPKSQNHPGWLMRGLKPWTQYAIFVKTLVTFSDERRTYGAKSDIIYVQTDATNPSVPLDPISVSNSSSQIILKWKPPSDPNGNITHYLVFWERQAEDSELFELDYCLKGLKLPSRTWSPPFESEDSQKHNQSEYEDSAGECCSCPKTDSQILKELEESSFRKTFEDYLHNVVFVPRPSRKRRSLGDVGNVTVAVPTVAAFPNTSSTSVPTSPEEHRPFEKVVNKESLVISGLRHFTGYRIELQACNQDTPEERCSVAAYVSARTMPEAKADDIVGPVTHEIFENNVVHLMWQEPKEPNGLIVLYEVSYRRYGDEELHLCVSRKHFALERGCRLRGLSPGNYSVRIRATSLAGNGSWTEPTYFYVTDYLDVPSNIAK

B1: 810D12 monoclonal antibody (secreted by hybridoma CNCM I-4893) (antibody, V domains shown)
VH: EVQLQQSGPELVKPGASVKMSCKASGHTFTSYMLHWVKQKPGQGLEWLGFINPYNDVTKYNENFKGKATLTSDKSSSTAYMELNSLTSEDSAVYFCVTTAYYGNGRYFDVWGAGTTVTVSS
VL: DIQMTQTTSSLSASLGDRVTISCRASQDITNYLTWYQQKPDGTVKVLIYYTSRLYSGVPSRFSGSGSGSDYSLTINNLEQEDIATYFCQQGYSLPWTFGGGTKLEIK
notes: Murine monoclonal antibody from a Balb/C hybridoma; The ELISAs used hybridoma supernatant; also called 810D12 antibody; 810D12I-4893
As for B1, the binding result was “no binding (tested: 5 µg/ml)”.
